Article PMC9936545, “Diurnal Fluctuations of Orexin-A and -B in Cynomolgus Monkey Cerebrospinal Fluid Determined by a Novel Analytical Method Using Antiadsorptive Additive Treatment Followed by Nanoflow Liquid Chromatography–High-Resolution Mass Spectrometry” (ACS Chemical Neuroscience, 2023)
Where no end group is shown, it is not given here.

Columns and labels:
[1] = Processed sample stability in autosampler; format: physicochemical, cynomolgus monkey; conditions: autosampler at 10 °C
Experimental: Reproducibility was evaluated by intraday and interday assays of spiked quality control (QC) in the surrogate matrix (SQC) and in the real matrix (RQC). […] Carry-over was assessed by injecting blank samples immediately after a calibration standard at the upper limit of quantification. […] The preparation and storage of all CSF samples were conducted under the stable conditions described above.
Working IS solutions at 500 pg/mL were prepared by diluting the IS stock solutions with a mixture of 0.1% (w/v) bovine serum albumin and 20 mM citric acid and 0.1% (w/v) Tween 80 (final concentrations) in Dulbecco’s phosphate-buffered saline (PBS) as the surrogate matrix. The surrogate matrix was used as a blank matrix for the calibration curve, SQC samples for method qualification, and blank samples. […] RQC samples, which were monkey CSF containing 20 mM citric acid and 0.1% (w/v) Tween 80, were also prepared to confirm the parallel between the surrogate and real matrices. […] Stability was evaluated based on the difference from the initial sample. The processed sample stability was evaluated using three replicates of real matrix. […] The stored samples were reinjected with freshly processed calibration samples. The processed sample stability was evaluated to compare the back-calculated concentrations. […]

[2] = OXA and OXB in cisternal CSF collected with and without antiadsorptive additives; format: in vivo, cynomolgus monkey; conditions: cisternal CSF at 17:00, collected on different days; additives 20 mM citric acid and 0.1% (w/v) Tween 80; N = 5 for OXA, N = 4 for OXB
Experimental: LoBind tubes were used for preparing the nanoLC-HRMS samples. The IS working solution (60 μL) was mixed with a CSF, calibration curve, SQC, or RQC (50 μL) sample. Samples for the calibration curves were added with freshly prepared calibration standards (5 μL) corresponding to 2.5, 5, 20, 25, 50, 100, and 250 pg/mL, while DMSO (5 μL) was added to other samples. The samples were mixed with 10% (v/v) phosphoric acid (20 μL) and then centrifuged at 18,360g for 5 min at 4 °C. The supernatant (120 μL) was loaded into an HLB μElution plate and washed with 200 μL of methanol/water mixture (5:95, v/v). Orexins and ISs were eluted with 200 μL of acetonitrile/water/formic acid (80:20:0.1, v/v/v). After centrifugation at 4283g for 5 min at 4 °C, the supernatant (180 μL) was evaporated to dryness under a stream of nitrogen gas at room temperature. The precipitates were reconstituted in 40 μL of acetonitrile/water/trifluoroacetic acid (TFA) (4:96:0.01, v/v/v). After centrifugation at 12,000g for 10 min at 4 °C, the supernatant (5 μL) was used for nanoLC-HRMS.
NanoLC-HRMS was performed on an EASY-nLC 1200 system (Thermo Fisher Scientific, Inc., Waltham, MA) and a Q Exactive HF-X Orbitrap mass spectrometer (Thermo Fisher Scientific) equipped with an electrospray ionization interface. […]

[3] = Recovery of spiked OXA and OXB during syringe and tube transfer in monkey CSF (nonspecific binding); format: physicochemical, cynomolgus monkey; conditions: nanoLC-HRMS; for recovery (%), spike recovery: spiked at final 100 pg/mL
Experimental: To overcome those problems, a mixture of 20 mM citric acid and 0.1% (w/v) Tween 80 (final concentrations) was added to the monkey CSF. […] Next, recovery during syringe transfer was assessed using the following procedure (Figure S2). […] Then, the spiked CSF was collected from the tube using a needle and a syringe. To the tube, 6 μL of 1M citric acid and 3 μL of 10% (w/v) Tween 80 were added, and the 300 μL of spiked CSF was returned from the syringe to the tube. The tube, the needle, and the syringe were rinsed by pipetting with CSF containing 20 mM citric acid and 0.1% (w/v) Tween 80 (final concentrations).
The samples were prepared in triplicate. […] The whole sample was removed from the tube using an injection needle (25G, Terumo Corporation, Tokyo, Japan) and a syringe (Terumo Corporation, Tokyo, Japan). Then, 1 M citric acid (6 μL) and 10% (w/v) Tween 80 (3 μL) were added to the empty tube to reach the final concentrations of 20 mM and 0.1%. The sample was returned from the syringe to the tube. The tube and syringe were then rinsed by pipetting five times with the CSF containing 20 mM citric acid and 0.1% (w/v) Tween 80. Finally, the whole sample was transferred to another tube. Recovery during tube transfer was assessed after repeating the procedure three times with monkey CSF containing 20 mM citric acid and 0.1% (w/v) Tween 80. The reference sample was prepared without syringe transfer, pipetting, or tube transfer. Recovery was calculated based on the quantitative values, which were the total values of endogenous and spiked orexins, in the testing samples to that in the reference sample.
CSF collection from cynomolgus monkey (A). Eppendorf Protein LoBind® tubes (1.5mL) were used for sample preparation. The syringe and needle used for CSF collection were washed by pipetting five times with collected CSF including anti- adsorptive additives to prevent non-specific adsorption to the instruments. Recovery test during syringe and tube transfer (B). Eppendorf Protein LoBind® tubes (1.5mL) were used for sample preparation. A tube containing neat CSF spiked with the standards for
The spiked CSF was collected from the tube using a needle and a syringe.
The tube, the needle, and the syringe were rinsed by pipetting five times w ith CSF containing citric acid/Tween 80.

[4] = Stability of OXA and OXB in real matrix (monkey CSF with 20 mM citric acid and 0.1% Tween 80); format: in vitro ADME, cynomolgus monkey
Experimental: Reproducibility was evaluated by intraday and interday assays of spiked quality control (QC) in the surrogate matrix (SQC) and in the real matrix (RQC). […] Carry-over was assessed by injecting blank samples immediately after a calibration standard at the upper limit of quantification.
Working IS solutions at 500 pg/mL were prepared by diluting the IS stock solutions with a mixture of 0.1% (w/v) bovine serum albumin and 20 mM citric acid and 0.1% (w/v) Tween 80 (final concentrations) in Dulbecco’s phosphate-buffered saline (PBS) as the surrogate matrix. The surrogate matrix was used as a blank matrix for the calibration curve, SQC samples for method qualification, and blank samples. […] RQC samples, which were monkey CSF containing 20 mM citric acid and 0.1% (w/v) Tween 80, were also prepared to confirm the parallel between the surrogate and real matrices. […] Stability was evaluated based on the difference from the initial sample. The processed sample stability was evaluated using three replicates of real matrix. […] The stored samples were reinjected with freshly processed calibration samples. The processed sample stability was evaluated to compare the back-calculated concentrations.

In the case of “Orexin-A (QPLPDCCRQKTCSCRLYELLHGAGNHAAGILTL; not fully specified; ends and bridges not checked; UniProt O43612 34-66, looked up) [OXA, 33-amino acid peptide with N-terminal pyroglutamylation, amidation of the C-terminal leucine, and two intramolecular disulfide bridges]”, the “time stable in autosampler (processed sample stability)” value ([1]; processed real-matrix samples, reconstituted in acetonitrile/water/TFA (4:96:0.01), three replicates) is reported as “at least 48 h”, the “percent remaining after 48 h, difference from the initial analysis” value ([1]; processed samples, 48 h, three replicates of real matrix, within ±) is reported as at most 15% and the “concentration ratios between samples without and with the antiadsorptive additives, mean” value [2] is reported as 30.7%. For the same substance, the “recovery (%), tube transfer (3 times)” value ([3]; monkey CSF containing 20 mM citric acid/0.1% (w/v) Tween 80, three tube transfers, LoBind tubes, mean ± SD, N = 3) was 105.2 ± 12.1%, the “recovery (%), syringe and tube transfer” value ([3]; monkey CSF spiked with OXA and OXB (3 μL of 10 ng each/mL in DMSO + 297 μL CSF), LoBind tube, 25G needle and syringe, 20 mM citric acid/0.1% (w/v) Tween 80 added after syringe collection, rinsed by pipetting five times, vs reference sample, mean ± SD, N = 3) was 100.6 ± 9.4% and the “recovery (%), spike recovery” value ([3]; monkey CSF with 20 mM citric acid/0.1% (w/v) Tween 80, mean ± SD, N = 3) was 107.1 ± 3.8%. For the same substance, the recovery ([3]; monkey CSF with addition of 0.01% (v/w) Tween 80 alone) was 106.1%, the “recovery (%), spike recovery” value ([3]; neat monkey CSF, no additives, mean ± SD, N = 3) was 41.6 ± 3.9% and the “percent difference in QC samples for stability evaluation from the initial sample” value ([4]; freeze–thaw (3 cycles, −80 °C), room temperature 2 h, −80 °C 60 days, real matrix QC in triplicate, within ±) was at most 15%. The “stability in real matrix, three freeze–thaw cycles” value ([4]; monkey CSF with 20 mM citric acid and 0.1% (w/v) Tween 80, unspiked and spiked (25 and 125 pg/mL) QC samples in triplicate, three freeze–thaw cycles at −80 °C, nanoLC-HRMS) was “stable”, the “stability in real matrix at room temperature” value ([4]; monkey CSF with 20 mM citric acid and 0.1% (w/v) Tween 80, unspiked and spiked QC samples in triplicate, room temperature for 2 h, nanoLC-HRMS) was “stable” and the “stability in real matrix at −80 °C” value ([4]; monkey CSF with 20 mM citric acid and 0.1% (w/v) Tween 80, unspiked and spiked QC samples in triplicate, −80 °C for 60 days, nanoLC-HRMS) was “stable”.
